PMC5792643
pKd: −log10 of the molar value.

Columns and labels:
[1] = molecular target: G-actin (monomeric actin from chicken muscle) (chicken) (UniProt P68139); assay: ITC
[2] = molecular target: G-actin (monomeric actin) (chicken) (UniProt P68139); assay: ITC

Substance	stoichiometry N [1]	pKd [2]	stoichiometry N [2]
Tarp_(726–825) (translocated actin recruiting phosphoprotein, G-actin binding region) (domain or fragment)	1		
Tarp_(726–825) (translocated actin recruiting phosphoprotein, residues 726–825, containing the G-actin binding domain) (from UniProt Q6GX35 726-825) (domain or fragment)		6.99	1
